Legend:
human serum albumin = molecular target: T1, human serum albumin (human, UniProt P02768 25-609); experiment: SPR, SA coupled to chip, pH 5.5
T1 construct: Coupled directly to the CM5 chip; also called HSA; human SA
Protocol: (§1) Affinity of molecules to serum albumin (SA) of the different species was determined by SPR measurements using a Biacore T200 device (GE Healthcare). SA was directly coupled to a CM5 sensor chip (GE Healthcare) using amine coupling chemistry. […] The assay was run in a 1× PBS-Tween buffer at pH 5.5.

Fc tagged human PDL1 = molecular target: T2, Fc tagged human PDL1 (human, UniProt Q9NZQ7 19-239); experiment: SPR
T2 construct: Bought (Sino Biological, cat. 10084-H02H); captured on the SPR chip; also called PDL1-Fc chimeric protein
How it was run: (§2)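 Kinetics were fitted with a one-to-one Langmuir model to give apparent ka, kd and KD. Binders at 0.12-90 nM (three-fold series) flowed 3 min, with 10 min dissociation and 3 M MgCl₂ regeneration, on a Biacore T200.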

Fc tagged human CD137 = molecular target: T3, Fc tagged human CD137 (human, UniProt Q07011 24-186); experiment: SPR
T3 construct: also called CD137-Fc chimeric protein
How it was run: as §2

human PDL1 on cells [1] = molecular target: T4, human PDL1 on cells (human, UniProt Q9NZQ7 19-290); experiment: cell-based or functional assay
[2] = molecular target: T5, CD137 on Jurkat NFkB reporter cells (human, UniProt Q07011 24-255); experiment: cell-based or functional assay
mouse serum albumin [3] = molecular target: T6, mouse serum albumin (mouse, UniProt P07724 25-608); experiment: SPR, SA coupled to chip
T6 construct: Coupled directly to the CM5 chip; also called MSA; mouse SA
Protocol: as §1

[4] = molecular target: T5, CD137 on Jurkat NFkB reporter cells; experiment: cell-based or functional assay; remark: listed apart in the source
[5] = molecular target: T5, CD137 on Jurkat NFkB reporter cells; experiment: cell-based or functional assay; remark: listed apart in the source
human PDL1 on cells [6] = molecular target: T4, human PDL1 on cells; experiment: cell-based or functional assay; remark: listed apart in the source
biotinylated human PDL1 [7] = molecular target: T7, biotinylated human PDL1 (human, UniProt Q9NZQ7 19-238, limits assumed, biotinylated); experiment: competition ELISA PD-1/PDL1
T7 construct: also called biotinylated PDL1

[8] = molecular target: T8, mouse CD137-Fc chimeric protein (mouse, UniProt P20334 24-187, limits assumed); experiment: SPR
T8 sequence (looked up): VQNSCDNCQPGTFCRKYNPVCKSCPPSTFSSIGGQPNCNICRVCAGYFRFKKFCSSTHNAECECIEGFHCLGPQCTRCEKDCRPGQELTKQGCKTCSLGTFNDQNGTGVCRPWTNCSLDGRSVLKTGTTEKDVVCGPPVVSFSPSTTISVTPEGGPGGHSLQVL
How it was run: as §2

[9] = molecular target: T5, CD137 on Jurkat NFkB reporter cells; experiment: cell-based or functional assay; remark: listed apart in the source
[10] = molecular target: T5, CD137 on Jurkat NFkB reporter cells; experiment: cell-based or functional assay; remark: listed apart in the source
mouse serum albumin [11] = molecular target: T6, mouse serum albumin; experiment: SPR, SA coupled to chip, pH 5.5
Protocol: as §1

biotinylated human PDL1 [12] = molecular target: T7, biotinylated human PDL1; experiment: competition ELISA B7.1/PDL1
How it was run: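 Test mixtures containing biotinylated human PDL1 were pre-incubated 1 h at room temperature, then incubated 1.5 h on the plate under agitation. Bound PDL1 detected with 10 ng/ml streptavidin-polyHRP40 and TMB, stopped at 6 min with HCl, read at 450 nm minus 690 nm. IC₅₀ from 4PL fit.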

biotinylated human PDL1 [13] = molecular target: T7, biotinylated human PDL1; experiment: PD-1/PDL1 competition ELISA with 1 mg/ml HSA: coated human PD-1, biotinylated human PDL1; blocked ligand: human PD-1
Protocol: (§3) Plates were blocked for 1 hour at room temperature by adding 300 μl of PBS with i%BSA and 0.2% tween (dilution buffer) to each well. Inhibitors were serially diluted in 3-fold steps to final concentrations ranging from 300 to 0.005 ng/ml in dilution buffer containing 1 ng/ml biotinylated human PDL1. The mixtures were pre-incubated for 1 hour at room temperature under gentle agitation on a rotating mixer (21 rpm) and added to the microplates after 3 wash cycles with 450 μl wash buffer per well. Plates were incubated for 1.5 hours at room temperature under gentle agitation, then 10 ng/ml streptavidin-polyHRP40 was added to each microplate well after three washes with 450 μl of wash buffer per well. After 1 h incubation at RT, plates were washed three times with 450 μl wash buffer and TMB substrate solution was added. The enzymatic reaction was stopped after 6 minutes by addition of 1 M HCl and absorbance was measured at 450 nm using 690 nm as a reference wavelength. For calculation of IC₅₀ values, a four-parameter logistic (4PL) curve fit was performed in Graph Pad Prism using reference subtracted values.

[14] = molecular target: cynomolgus CD137-Fc chimeric protein (cynomolgus monkey, UniProt A9YYE7 24-186); experiment: SPR
How it was run: as §2

biotinylated human PDL1 [15] = molecular target: T7, biotinylated human PDL1; experiment: competition ELISA PD-1/PDL1 with HSA
Protocol: as §3

[16] = molecular target: T5, CD137 on Jurkat NFkB reporter cells; experiment: cell-based or functional assay; remark: listed apart in the source
[17] = molecular target: T5, CD137 on Jurkat NFkB reporter cells; experiment: cell-based or functional assay; remark: listed apart in the source

B1: PRO963 (other)
chain: DIQMTQSPSSLSASVGDRVTITCQASQSINDYLAWYQQKPGKAPKLLIYKASTLASGVPSRFSGSGSGTDFTLTISSLQPEDFATYYCQQGYIITDIDNVFGTGTKVTVLGGGGGSQVQLQESGPGLVKPSETLSLTCKVSGFSFSNSYWICWIRQPPGKGLEWIGCTFVGSSDSTYYANWAKGRVTISVDSSKNQFSLKLSSVTAADTAVYYCARHPSDAVYGYANNLWGQGTLVTVSSGGGGSGGGGSGGGGSGGGGSIQMTQSPSSLSASVGDRVTITCQASQSINNVLAWYQQKPGKAPKLLIYRASTLASGVPSRFSGSGSGTDFTLTISSLQPEDFATYYCQSSYGNYGDFGTGTKVTVLGGGGGSQVQLQESGPGLVKPSETLSLTCKVSGFSFSSGYDMCWIRQPPGKGLEWIGCVVAGSVDITYYASWAKGRVTISVDSSKNQFSLKLSSVTAADTAVYYCARKDAYSDAFNLWGQGTLVTVSSGGGGSGGGGSIQMTQSPSSLSASVGDRVTITCQSSESVYSNNQLSWYQQKPGQPPKLLIYDASDLASGVPSRFSGSGSGTDFTLTISSLQPEDFATYYCAGGFSSSSDTAFGGGTKLTVLGGGGGSGGGGSGGGGSGGGGSEVQLVESGGGLVQPGGSLRLSCAASGFSLSSNAMGWVRQAPGKGLEYIGIISVGGFTYYASWAKGRFTISRDNSKNTVYLQMNSLRAEDTATYFCARDRHGGDSSGAFYLWGQGTLVTVSS
notes: trispecific scDb-scFv anti-PDL1 x CD137 x HSA; also called PRO1051; 38-02-A04 sc01 scDb-i/33-03-G02 sc01 scDb-o/19-01-H04-sc03 scFv
Human serum albumin
  koff: 0.0003 s⁻¹
Fc tagged human PDL1
  Kd: 0.0066 nM
  kon: 2e+06 M⁻¹ s⁻¹
Fc tagged human CD137
  Kd: 3 nM
  koff: 0.00062 s⁻¹
  kon: 200000 M⁻¹ s⁻¹
Human PDL1 on cells [1]
  IC50 (ng/ml), NF-AT potency assay, +HSA: 275 ng/mL
  rel. IC50 (avelumab/test), +HSA: 0.25 fold
[2]
  max. activation (%), NFkB reporter, CHO-PD-L1, 24 h, +HSA: 369%
Mouse serum albumin [3]
  binding result: no binding

B2: PRO1126 (bispecific antibody)
chain: DFQLTQSPSSLSASVGDRVTITCQASQSINDYLAWYQQKPGKSPKLLIYKASTLASGVPSRFSGSGSGTDFTLTISSLQPEDFATYYCQQGYIITDIDNVFGTGTKVTVLGGGGGSQVQLQESGPGLVKPSETLSLTCKVSGFSFSNSYWICWIRQPPGKGLEWIGCTFVGSSDSTYYANWAKGRVTISVDSSKNQFSLKLSSVTAADTAVYYCARHPSDAVYGYANNLWGQGTLVTVSSGGGGSGGGGSGGGGSGGGGSIQMTQSPSSLSASVGDRVTITCQASQSINNVLAWYQQKPGKAPKLLIYRASTLASGVPSRFSGSGSGTDFTLTISSLQPEDFATYYCQSSYGNYGDFGTGTKVTVLGGGGGSQSQLQESGPGLVKPSETLSLTCKASGFSFSSGYDMCWVRQPPGKGLEWIACVVAGSVDITYYASWAKGRVTISKDSSKNQVSLKLSSVTAADTAVYFCARKDAYSDAFNLWGQGTLVTVSS
notes: scDb; also called 38-02-A04 sc01 scDb-i/33-03-G02 sc03 Full scDb-o
[4]
  EC50, NFkB reporter, CHO-PDL1: 0.006 µg/mL
  Top of curve fit, NFkB reporter, CHO-PDL1: 242
[5]
  EC50, NFkB reporter, HCC827 without IFNg: 0.00697 µg/mL
  Top of curve fit, NFkB reporter, HCC827 without IFNg: 135
Human PDL1 on cells [6]
  IC50, NFAT reporter gene assay: 0.0481 µg/mL
Biotinylated human PDL1 [7]
  IC50: 0.00128 µg/mL
  rel. IC50 (IC50 avelumab/IC50 test): 1.59 fold
Fc tagged human PDL1
  Kd: ≤ 0.0035 nM
  fold improvement in affinity against PRO885 (CDR graft): 20 fold
  koff: < 1e-05 s⁻¹
[8]
  binding result: no binding
Fc tagged human CD137
  Kd: 3.5 nM
  koff: 0.00075 s⁻¹
  kon: 210000 M⁻¹ s⁻¹
[9]
  EC50, NFkB reporter, HCC827 with IFNg: 0.00548 µg/mL
  Top of curve fit, NFkB reporter, HCC827 with IFNg: 208
[2]
  IC50 (ng/ml), NFkB reporter, CHO-PD-L1: 6 ng/mL
  IC50 (ng/ml), NFkB reporter, HCC827 + IFNg: 5.48 ng/mL
  IC50 (ng/ml), NFkB reporter, HCC827 - IFNg: 6.97 ng/mL
  max. activation (%), NFkB reporter, CHO-PD-L1: 242%
  max. activation (%), NFkB reporter, HCC827 + IFNg: 208%
  max. activation (%), NFkB reporter, HCC827 - IFNg: 135%
  rel. IC50 (urelumab/test), NFkB reporter, CHO-PD-L1: 14.4 fold
  rel. IC50 (urelumab/test), NFkB reporter, HCC827 + IFNg: 19.7 fold
  rel. IC50 (urelumab/test), NFkB reporter, HCC827 - IFNg: 16 fold

B3: PRO1057 (other)
chain: DIQMTQSPSSLSASVGDRVTITCQASQSINDYLAWYQQKPGKAPKLLIYKASTLASGVPSRFSGSGSGTDFTLTISSLQPEDFATYYCQQGYIITDIDNVFGTGTKVTVLGGGGGSQVQLQESGPGLVKPSETLSLTCKVSGFSFSNSYWICWIRQPPGKGLEWIGCTFVGSSDSTYYANWAKGRVTISVDSSKNQFSLKLSSVTAADTAVYYCARHPSDAVYGYANNLWGQGTLVTVSSGGGGSGGGGSGGGGSGGGGSIQMTQSPSSLSASVGDRVTITCQASQSINNVLAWYQQKPGKAPKLLIYRASTLASGVPSRFSGSGSGTDFTLTISSLQPEDFATYYCQSSYGNYGDFGTGTKVTVLGGGGGSQVQLQESGPGLVKPSETLSLTCKVSGFSFSSGYDMCWIRQPPGKGLEWIGCVVAGSVDITYYASWAKGRVTISVDSSKNQFSLKLSSVTAADTAVYYCARKDAYSDAFNLWGQGTLVTVSSGGGGSGGGGSVVMTQSPSSLSASVGDRVTITCQASQIISSRSAWYQQKPGQPPKLLIYQASKLASGVPSRFSGSGSGTDFTLTISSLQPEDFATYYCQCTYIDSNFGAFGGGTKLTVLGGGGGSGGGGSGGGGSGGGGSEVQLVESGGGLVQPGGSLRLSCAASGFSFSSSYWICWVRQAPGKGLEWVGCVFTGDGTTYYASWAKGRFTISRDNSKNTVYLQMNSLRAEDTATYFCARPVSVYYYGMDLWGQGTLVTVSS
notes: trispecific scDb-scFv; also called 38-02-A04 sc01 scDb-i/33-03-G02 sc01 scDb-o/23-12-A01-sc03, sk17sh4
[10]
  EC50, NFkB reporter, HCC827 with IFNg, 24 h, +HSA: 0.115 µg/mL
  EC50, NFkB reporter, HCC827 without IFNg, 24 h, +HSA: 0.0766 µg/mL
Biotinylated human PDL1 [7]
  IC50: 0.00861 µg/mL
  rel. IC50 (IC50 avelumab/IC50 test): 0.2 fold
Mouse serum albumin [11]
  kon: 130000 M⁻¹ s⁻¹
Human serum albumin
  koff: 0.00067 s⁻¹
  kon: 240000 M⁻¹ s⁻¹
Biotinylated human PDL1 [12]
  IC50: 0.0163 µg/mL
  rel. IC50 (IC50 avelumab/IC50 test): 0.53 fold
Biotinylated human PDL1 [13]
  IC50 (read off the curve): ~0.02 µg/mL
Fc tagged human PDL1
  Kd: 0.11 nM
  koff: 0.00017 s⁻¹
[14]
  Kd: 4.8 nM
[8]
  Kd: 1200 nM
Fc tagged human CD137
  Kd: 5.15 nM
  koff: 0.0007 s⁻¹
  kon: 240000 M⁻¹ s⁻¹
Biotinylated human PDL1 [15]
  fold change of IC50 in presence of human serum albumin: ~2 fold
Human PDL1 on cells [1]
  IC50 (ng/ml), NF-AT potency assay, +HSA: 665 ng/mL
  rel. IC50 (avelumab/test), +HSA: 0.1 fold
[16]
  EC50, NFkB reporter, CHO-PDL1, 6 h, +HSA: 0.112 µg/mL
[2]
  IC50 (ng/ml), NFkB reporter, CHO-PD-L1, 24 h, +HSA: 792 ng/mL
  IC50 (ng/ml), NFkB reporter, HCC827 + IFNg, 24 h, +HSA: 115 ng/mL
  IC50 (ng/ml), NFkB reporter, HCC827 - IFNg, 24 h, +HSA: 76.6 ng/mL
  max. activation (%), NFkB reporter, CHO-PD-L1, 24 h, +HSA: 663%
  rel. IC50 (urelumab/test), NFkB reporter, CHO-PD-L1, 24 h, +HSA: 0.1 fold
  rel. IC50 (urelumab/test), NFkB reporter, HCC827 + IFNg, 24 h, +HSA: 0.46 fold
  rel. IC50 (urelumab/test), NFkB reporter, HCC827 - IFNg, 24 h, +HSA: 0.62 fold
[17]
  EC50, NFkB reporter, CHO-PDL1, 24 h, +HSA: 0.792 µg/mL
